Data from article PMC5138414, “Structural Basis for Redox Regulation of Cytoplasmic and Chloroplastic Triosephosphate Isomerases from Arabidopsis thaliana” (Frontiers in Plant Science, 2016).
Positions count from the first letter of the chain named. Names and notes keep the numbering of the source.

B1: cTPI-C218S (enzyme, Arabidopsis thaliana, UniProt P48491 1-254, looked up)
chain: MARKFFVGGNWKCNGTAEEVKKIVNTLNEAQVPSQDVVEVVVSPPYVFLPLVKSTLRSDFFVAAQNCWVKKGGAFTGEVSAEMLVNLDIPWVILGHSERRAILNESSEFVGDKVAYALAQGLKVIACVGETLEEREAGSTMDVVAAQTKAIADRVTNWSNVVIAYEPVWAIGTGKVASPAQAQEVHDELRKWLAKNVSADVAATTRIIYGGSVNGGNSKELGGQADVDGFLVGGASLKPEFIDIIKAAEVKKSA
notes: cytoplasmic triosephosphate isomerase, Arabidopsis thaliana, At3g55440, point mutant; Made by site-directed mutagenesis of the cTPI construct; source: E. coli BL21 (DE3) Δtpi, purified (IMAC His-Trap FF, Superdex 75)
B2: cTPI-C13S (enzyme, Arabidopsis thaliana, UniProt P48491 1-254, looked up)
chain: B1 chain with C13S, S218C
notes: as for B1
B3: cTPI-C13S/C218S (enzyme, Arabidopsis thaliana, UniProt P48491 1-254, looked up)
chain: B1 chain with C13S
notes: cytoplasmic triosephosphate isomerase, Arabidopsis thaliana, At3g55440, double mutant; Made by site-directed mutagenesis of the cTPI construct; also called cTPI double mutant; source: E. coli BL21 (DE3) Δtpi, purified (IMAC His-Trap FF, Superdex 75)

Target: the molecule itself
Test: SEC; analytical size-exclusion chromatography, Superdex 75 10/300GL, calibrated with Bio-Rad gel filtration standard, 0.5 mL/min, 100 mM TEA pH 7.4, 10 mM EDTA, 1 mM DTT; dimer of identical subunits

Row | Protein | binding result | stoichiometry N
1 | B1 | binds | –
2 | B2 | – | 2
3 | B3 | – | 2
